Key:
[1] = system: CD4 positive cells and patient-derived B cells immortalized by EBV infection; experiment: Restimulation assay of PBMC by S864-882 peptide, human IL-21 ELISA; assay type: cell-based; conditions: peptide 1 μg/ml; 24 hr; compared with not stimulated
[2] = system: T-cell hybridomas expressing TCRs of clonotype 1/2 (clone 1 and clone 2); assay type: cell-based, human
[3] = biological target: T1, SARS-COV-2 spike (S) protein peptide on HLA-DRA*01:01 / HLA-DRB1*15:01 (human); experiment: activation reporter or marker
T1 peptide: PPLLTDEMIAQYTSA

[4] = biological target: T2, SARS-COV-2 spike (S) protein peptide on HLA-DRA*01:01 / HLA-DRB1*15:01 (human); experiment: activation reporter or marker
T2 peptide: DEMIAQYTSALLAGT

[5] = biological target: T3, SARS-COV-2 spike (S) protein peptide on HLA-DRA*01:01 / HLA-DRB1*15:01 (human); experiment: activation reporter or marker
T3 peptide: LLTDEMIAQYTSALLAGTI

[6] = biological target: T4, SARS-COV-2 spike (S) protein peptide on HLA-DRA*01:01 / HLA-DRB1*15:01 (human); experiment: activation reporter or marker
T4 peptide: PLLTDEMIAQYTSAL

[7] = biological target: T5, SARS-COV-2 spike (S) protein peptide on HLA-DRA*01:01 / HLA-DRB1*15:01 (human); experiment: activation reporter or marker
T5 peptide: YTSALLAGTITSGWT

[8] = biological target: T6, SARS-COV-2 spike (S) protein peptide on HLA-DRA*01:01 / HLA-DRB1*15:01 (human); experiment: activation reporter or marker
T6 peptide: LPPLLTDEMIAQYTS

[9] = biological target: T7, SARS-COV-2 spike (S) protein peptide on HLA-DRA*01:01 / HLA-DRB1*15:02 (human); experiment: activation reporter or marker
T7 peptide: LLTDEMIAQYTSALLAGTI

[10] = biological target: T8, SARS-COV-2 S protein, S867-881 peptide with residue 5 (T) of SEQ ID NO: 13 replaced with alanine peptide on … (human); experiment: activation reporter or marker
T8 peptide: DEMIAQYASALLAGT

[11] = biological target: T9, SARS-COV-2 spike (S) protein peptide on HLA-DRA*01:01 / HLA-DRB1*15:01 (human); experiment: activation reporter or marker
T9 peptide: AQYTSALLAGTITSG

S864-882: peptide of positions 864-882 of the SARS-CoV-2 S protein, epitope of clones 1 and 2
concentration of IL-21 in the medium [1]: higher | stimulation of clones 1 and 2, CD69 expression ([2]; APC from an individual who has DRB1*15:02 but not DRB1*15:01): able to stimulate both clones 1 and 2 | epitope determination by stimulating clones 1 and 2 with single synthesized peptide, CD69 ([2]; single peptide 1 μg/ml, 20 hr, in the presence of APC): determined as an epitope for both clones 1 and 2

B1: Clone 1 (TCR-017) (TCR)
alpha TRAV12-1 TRAJ12 CDR3: CVVNRGSSYKLIF
beta TRBV11-2 TRBJ2-7 CDR3: CASSQTYEQYF
binding result [3]: no recognition | binding result [4]: recognises | binding result [5]: recognises | binding result [6]: no recognition | binding result [7]: no recognition | binding result [8]: no recognition | binding result [9]: recognises | binding result [10]: no recognition | binding result [11]: no recognition

Source: patent US20240309051A1, “[…] T (TFH) CELLS […] TO SARS-COV-2 VIRUS” (priority 2021, published 2024)
